The supplement of paper PMC10567573

B1: SLC19A2 (parent)
chain: IYPVWTYSYLVLLFPVFLATDYLR

Variants of: B1
Experiment: protein stability index of a GFP-peptide fusion (GPS, HEK-293T) (PSI 1-6); higher = more stable
Conditions: c terminus: a fixed tail appended
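Also: lentivirally expressed fusions sorted by FACS into six bins by GFP to DsRed ratio, PSI derived from sequencing read proportions per bin multiplied by bin number.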

Protein stability index of substitutions, site by site:
L12: I 3.39; K 3.56; M 2.48; N 1.72; P 3.92; Q 3.02; R 2.37; S 2.91; T 2.41; V 2.6; W 3.3; Y 2.31
L13: A 3.41; C 2.38; D 3.57; E 2.6; F 2.64; G 1.19; I 2.53; M 3.06; N 2.64; P 1.48; Q 4.28; S 2.34; T 1.87; V 3.06; W 3.58; Y 2.87
F14: A 2.08; C 2.63; E 2.74; G 3.54; H 3.32; I 3.07; K 1.99; L 3.35; M 4.1; P 2.48; Q 2.98; R 3.83; T 3.75; V 2.97; W 2.47; Y 2.88
P15: A 3.53; C 3.79; E 3.03; F 2.95; G 1.93; H 2.75; L 2.41; M 3.22; N 2.11; Q 3.38; R 2.7; S 2.5; W 3.27; Y 1.06
V16: A 3.1; C 2.79; D 4.04; E 1.72; F 3.04; H 4.12; I 3.52; K 1.95; L 2.41; M 2.55; N 2.79; P 2.42; Q 3.85; R 3.91; S 3.4; T 2.15; Y 2.34
F17: A 3.59; C 2.97; D 2.99; E 3.22; G 2.81; H 3.74; K 3.78; M 3.21; N 3.6; P 4.41; R 2.95; S 2.64; T 2.95; W 2.19; Y 2.43
L18: A 2.5; C 3.04; D 2.81; E 3.06; F 2.3; G 3.7; H 3.99; I 3.03; K 2.51; M 3.69; N 2.84; P 3.1; Q 2.84; R 4.66; S 3.42; T 2.54; Y 2.32
A19: D 2.38; F 3.11; G 2.6; H 2.48; I 2.47; K 1.69; L 3.29; M 2.59; N 3.19; P 4.21; Q 2.78; S 2.5; T 1.57; V 3.34; W 3.92; Y 3.37
T20: A 2.94; C 2.53; E 1.62; F 2.44; I 4.41; L 4.02; P 3.55; Q 3.01; S 2.33; W 1.93; Y 1.95
D21: A 3.19; C 2.36; E 3.77; F 2.61; G 2.73; H 3.39; K 2.46; N 2.65; P 2.63; R 2.67; S 2.09; T 2.75; V 2.38; W 2.24; Y 3.42
Y22: D 2.55; E 2.71; F 3.76; G 1.66; K 4.23; P 3.49; Q 1.98; R 1.75; S 3.06; T 2.68; V 2.6; W 2.78
L23: A 3.57; D 2.96; E 2.68; G 3.42; H 2.11; I 2.61
